Results published in the DeepSol protein solubility set.

Assay: soluble on expression in E. coli; label from the status in PepcDB or PDB records

Row | Sequence | soluble on expression in E. coli
1 | SRSRPAGPALLLLLLFLGAAESVRRAQPPRRYTPDWPSLDSRPLPAWFDEAKFGVFIHWGVFSVPAWGSEWFWWHWQGEGRPQYQRFMRDNYPPGFSYADFGPQFTARFFHPEEWADLFQAAGAKYVVLTTKHHEGFTNWPSPVSWNWNSKDVGPHRDLVGELGTALRKRNIRYGLYHSLLEWFHPLYLLDKKNGFKTQHFVSAKTMPELYDLVNSYKPDLIWSDGEWECPDTYWNSTNFLSWLYNDSPVKDEVVVNDRWGQNCSCHHGGYYNCEDKFKPQSLPDHKWEMCTSIDKFSWGYRRDMALSDVTEESEIISELVQTVSLGGNYLLNIGPTKDGLIVPIFQERLLAVGKWLSINGEAIYASKPWRVQWEKNTTSVWYTSKGSAVYAIFLHWPENGVLNLESPITTSTTKITMLGIQGDLKWSTDPDKGLFISLPQLPPSAVPAEFAWTIKLTGVK | soluble
2 | HVYILGKIPSPLTLIKAFADVRPSFVIMVPLIIEKLYHKAIAPKIKTPLIKFLLRLPVLKKVIHKSIRSKLIESFGGNFRQIIIGGAALNDEVAHFLYRIGFPLTVG | not soluble
3 | GHMASGLTIYFKKPDSWGTPHLYYYDTNPKVDEPTWSEAPEMEHYEGDWYTHTIEGVESVRLLFKDRGTNQWPGPGEPGFFRDQDGWFDGEWHVDRPG | soluble
4 | KKMREEGVHEGCMEQIYRMFSQRLYKEDGSAAEVDDMNRLRLDDWELREDIQQHCRELWPQITTENLKELTDYVEYKEEFLKLFGFGVEGVDYEADVNPAVETDFIQI | not soluble
5 | MAHHHHHHMLHEPVSTANGHMPRRSSLGCRLRSSPFLSCVAYVNTLTCDSLMHALRATVSQRIATGVDVECHRLTSGAAVVSTPTQVHISITSANFVRQRSSRPALLPLLTHPPPPSPSLHPVMSRSRQQQAAEVTLHHFFKTERVIRLECERREAKARLKLIDIMSGDLDDQLLCVAQFKKEWLQSRRVLEEARQAVVQEEGSKRAYVEEEYVRTINTMSRHYHPLSSRVV | not soluble
6 | MSLLHERINFNPKVDVEVKLPERLEEGKITEVNVVVRNRGSKGILEVKIEGEDLIGEAKRVKLDSGEKLVKLSVKPLNKGDKVLKVKALFEDELNLYYSEVYEAEFSIQVLPSVDSIREAAREEVSIRMREALKKGKIGVESTELYGLREYLPGDDVRRIDWKATTRLRKLIVKEFMRESEGDVYIVLDATREMRKRIRRSKIDYASSLVLYIATILIRSNKRVGLILFSEDEFKVVKPEKGSEQLERIRETLRFKPLKGLTSFKGEVGRLKTWDFLRKLFPRKRRGVEEALLSIRNPSYVILITDLMSNTPRLYSAVSMVKKKHKVIILSPNPVLFYSGELDEETLRFLYEKYRERERILRKFNSLVPTVDLGPSDYGREVLEVLEGEGHHHHHH | not soluble
7 | MGSDKIHHHHHHMRYVIVGSGPAGLNAIEAIREVDKEGEILLITAEKYVGYSRPLITYLLGRKVTEEKMYYRTEDYLREMRVDIKPATRVEKVIPEEKTVVTDSGEEIRYDKLLIATGGKPFVPNIEGLTGKKGVFTFTTWEDEEKVEKYIEENDVKEAVVLGGGLIGLKTTEALMELGVKVTIVELADRILSVTFDRKASEIITEALKKEGCSVITNDTVVKVNGDDTVSSVVLKSGKEIPTKLLVIAIGVKPNVEFLKDSGIEINRGIVVNEKMETNVEGVYAAGDCTEFYDLIDGQRKTIAIWPVAVAQGRVAGYNMAGKNVRYPGGIPMNSVELAGIPTISVGHSNVEDGGYEILTFEEGNTYKKMVLKDNRLVGAILVNDIDRAGIYTGLILQKLDVSSFKDRLLDENFGLVYLPKEFRKKMLEGEIKIWLE | not soluble
8 | MISYGELIRQIRQSKKISQKEVYTGVISKSYAIEFEKGTHAISSILLEKIVTKLMVSMEEFFFMYHQEELPEKEDFWEAYERACKTDEIAIWELLYQKISSEEGKINQVKSAAIKLELDHIKGKQVMDKKVVRILENYLIEAVFWTLEDIFLFTRMLPYLSLKSRVPFYYKLLNTLDRYRHFERGRRILQTAIASIIDDFIEKNEIEHMELMIRSLKKISDDCEGAYFKILCMYYHGIIERGEGAEIKQAIAILRVLGYENKALKYEAMYRQFSLKATI | not soluble
9 | MRRLAWLLPLLLLAGAVGALRYQWLDLPARWNPWLPLDVREPPNLLTRYKLWRLADDRSLCDAALATSQLRYQRVADDPPSATCPLSNSLRVRGAALELSSSFLASCPLAVSYALFERHVLQPAALDIYGQPLARVEHVGSFACRNVYNREDGRRSQHASANALDISGFRLADGRRIRLATDWAGESADGRFLRRVRDGACASFNAVLGPDYNAAHRDHFHLDMGLWKVCRLEHHHHHH | not soluble
10 | MAHHHHHHMTDIAHGSRYDRDAAISTAAEQVAAGQYAENKPRAIMFVNKRPVEIIPQEENVLEVLEREGITVPKFCYHPILSVAGNCRMCMVQVDGTQNIVVACSTVALPGMSIITDSRLVRDAREGNVELILINHPNDCPICEQATNCDLQNVSMNYGTDIPRYREDKKAVEDFYFDPQTRVVLNRCIHCTRCIRFLNEHAQDFNLGQIGRGGLSEISTFLDELEVKTDNNMPVSQLCPVGKLYMGDADENNDIVRELEAAGATA | not soluble
11 | MAHHHHHHMSSITGAAYSSPEYTHCIRDSRFRHNVYEPEADTFLFLDALDKDAELLRSIRPDRCVEVGCGSGAVITHLRCLLMPSVAAAATQELEAETPELCCGASGIRSAVGGPMFCAVDVNPLALEATAITWTETLLKYFRETVLAAFYERIFQSAVPTSLAAPVVLSAEGVSPPLTRVDADDPTSSALSASTFCLHRFHGDLLNALPRGNSAPALFDVVLFNPPYVPTSLKELQDAITQRDVITTAWCGGPRGRVVLDRFLRQLPSVLSRRGVCYVVLIKENNATDVVAFAQAAFREHLRCSGTETVKDEDDVLEASEVAARYTGEHLSVYRLRYVPRFQTP | not soluble
12 | MSQPYSAVADATGKAYVDIRVCDLLVQQGNMPKGLDSDFQIDGLYVVLRCQEDVRRTSCLWSTAPGACATELQSAAMQLGAAAGAYEAQSDDALVWNEMFRFVVPPALPLSTPAISPRAPHSPPSADGGDPQGGFCAPYTPPLPLSGSASGVAGGLHDIPGGIALPMSTAASGGMRAAGSSGFPVPYTPQPSSLAISTPPLHSAAAQKQPSGGGNGARATEAVASHASLFYPTIELELWRSAPLSENLLGRYKYHVPMELMQGGYALSNLDAVVERVVLLRTKDAPSIMGNLYGWSGHRLSLRLRVQAVGLAPLMAAWSPQQGSEATMTAASTIGSAAYPAPFPTGMLGNTVTGAPPYVAAGVYGAPLGTLNPVLVNLLAPLGVPTGGSGAGQLAPTVMMSMPGGMGGDNLHKPGQPPFFSMFPPASEAPADVGGKMFHPHLPGVLPATPQSSGQGILGDGDLTWQSSTTQPTVYPPYRLPR | not soluble
13 | MAHHHHHHMHQLRTFNYVASELGHDEPVLHAVFVTHRCLPPDPPEVNFTTAIPQTVTAASRRTSSDDASIGAAVHVEKTVVLSVEDTLAAPLEVALTVEQELAQLSKKLDAWKVQRLADLQARGGERSPSRLAQMEAAMERRLALRRIEEQDRAQKRVDALLSYLGPRIDKQLQLVAREHDGEEALSSSYARVETTSDVKDSACADKSAASAATPSPPSPRARILCDQQYFVKRQEIALEERGARQAVLRNMWDARRLAHLVEDEVSFRHSIEAREVVWRDRVHSELRASVEMDHV | not soluble
14 | LVGDFERELGRLLSPFELEDLQKTLQEDQTDPDIVRAALREAVFNGKTSWNYINAILRNWRREGLTTLRQIEERKQAREDNQMKDLAISDDFKNAMNLWE | not soluble
15 | MNFLDAVYNAGVVGAGGAGFPTHLKMTKEVGTFIVNGAECEPLLEVDKFLMREKTYELIKGMEIIAGNLKAARVVLGLKKKYKVEIKKLSETIKELDSNVELFLMDNFYPAGDEQIMVKDITGKSIPAGGIPLDVDTVVSNVGTVINVYEAIEEKPVTKKYVSVLGEVNNPVMLEVPIGTSFEECIKRAGGVKIKNYAVIEGGPMMGKIVHRDELAEKAVIKTTGALIILPEDHYVIKRKERPEAHILNESRAACIQCRMCTDMCPRYLIGHKLRPHRVMRAMGMGEQDEEILKEALICCECNVCELFACPMGISPKSTNTYLKGVFREKGVRYDGNKEIPSEHEMRDYRKIPVNRLIARLNLSRYYNNKVADLQELKADKVKIFLSQHIGKPAVPLVKEGDRVIEGQRIAEVGREEFGANIHASINGVVTKVEKSYIEIDGMV | not soluble
